# From patent US20230295312A1 (AKESO BIOPHARMA, published 2023)
# T1: human IL4RA-hFc (human, UniProt P24394 26-232)
# T1 construct: mature; Coating antigen in ELISA
# T1 sequence (looked up): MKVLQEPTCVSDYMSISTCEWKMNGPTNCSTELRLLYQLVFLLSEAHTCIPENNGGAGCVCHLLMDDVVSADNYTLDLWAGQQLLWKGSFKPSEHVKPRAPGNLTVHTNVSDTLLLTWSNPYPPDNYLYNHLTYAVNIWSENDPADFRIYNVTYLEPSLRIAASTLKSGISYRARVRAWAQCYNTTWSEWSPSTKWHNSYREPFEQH
# Key:
# [1] = target: T1, human IL4RA-hFc; assay: indirect ELISA, antigen coated 1 ug/mL
# Method: Procedures: The ELISA plates were coated with human IL4RA-hFc or human IL4RA-mFc and were incubated, and target antibodies were added after blocking. […] The plates were incubated and washed before TMB (Neogen, 308177) was added for chromogenic reaction. At the end of the reaction, the absorbance at 450 nm was measured by a plate reader. The data were analyzed by SoftMax Pro 6.2.1.
# [2] = target: T1, human IL4RA-hFc; assay: competitive ELISA vs IL4-N-His; Ab 3 ug/mL
# Method: (§1) The ELISA plates were coated with human IL4RA-hFc and blocked before the antibodies were added. […] After the plates were washed, mouse anti-His, HRP (purchased from CoWin Biosciences, Cat No. CW0285A) was added for incubation. The plates were subjected to another wash. Chromogenic reaction was started by adding TMB (Neogen, 308177) and was then terminated. At the end of the reaction, the OD value at 450 nm wavelength was measured by a plate reader, and was analyzed and processed by SoftMax Pro 6.2.1.
# (§2) By 4-parameter logistic regression of absorbance vs. antibody concentration, the blocking EC₅₀ of the antibodies was calculated.
# [3] = target: T1, human IL4RA-hFc; assay: competitive ELISA; blocks IL4-N-His binding to coated IL4RA-hFc
# [4] = target: T1, human IL4RA-hFc; assay: competitive ELISA; blocks IL4-N-His (0.15 ug/ml) binding to coated IL4RA-hFc (2 ug/mL)
# Method: as §1, with “CW0285M)” for “CW0285A)”
# as §2
EC50 [1],OD450 [2],EC50 [3],EC50 [4],Binder
0.084 nM,0.053,3 nM,,"13E5 (antibody, V domains shown, Murine hybridoma antibody purified on protein A; also called murine antibody 13E5; antibody secreted by hybridoma LT008 (IL4RA-13E5)) VH: EVQLQQSGPELVKPGASVKISCKTSGYTFTEYTIHWVKQNHGKSLEWIGGINPNNGGTVYNQNFKGKATLTVDKSSSTAYMELRSLTSEDSAVYYCARVRRGMDYWGQGTSVTVSS VL: DIVMTQSHKFMSTSVGDRVSITCKASQDVTTAVAWYQQKPGQSPKLLIYSASYRYTGVPDRFTGSGSGTDFTFTISSVQAEDLAVYYCQQHYSAPWTFGGGTNLEIK"
0.068 nM,,,2.71 nM,"18H7 (antibody, V domains shown, Murine hybridoma antibody purified on protein A; also called murine antibody 18H7; antibody secreted by hybridoma LT009 (IL4RA-18H7)) VH: DVKLVESGGDLVNLGGSLKLSCAASGFTFSSSYMSWVRQTPERRLELVAAINSNGGKTYYPDTVKGRFTISRDNAKNTLYLQMSGLKTEDTALYYCTRQRGNYVGAMDYWGQGTSVTVSS VL: DIVMTQSHKFMSTSVGDRVSITCKASQDVSTAVVWYQQKPGQSPTLLIYSASYRYTGVPDRFTGSGSGTDFTFTISSVQAEDLAVYYCHQYYGSPPTFGGGTKLEIK"
